# Laboratory results taken from the supplement of paper PMC10724198.
# ± gives the standard deviation of the averaged measurements.
# Tested on: Saccharomyces cerevisiae
# Experiment: protein stability index of tFT-peptide fusion (C-terminal peptide) (PSI (0-1 scale)); higher = more stable (slower turnover)
# Settings: genetic background: wild type; temperature: 30 C
# Description: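 Multiplexed protein stability (MPS) profiling in S. cerevisiae. Random 12-aa peptides (tFT-X12 library) are fused to the C-terminus of a sfGFP-mCherry tandem fluorescent timer, after mCherry and a GGGS linker. Cells are FACS-sorted into 8 mCherry/sfGFP bins and deep-sequenced. The protein stability index (PSI) is the read-weighted bin average, scaled from 0 (unstable) to 1 (stable). Only peptides with >10 reads are reported; cells were grown at 30 °C in SC-His with glucose.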
# 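Note: PSI is a weighted mean of sequencing reads over stability bins, variants kept only with over 10 reads, mCherry proximal and sfGFP distal, peptide attached via GGGS linker.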
row,Sequence,protein stability index
1,LSVLPAFYPRSP,0.758 ± 0.045
2,YPLPFRHASIPF,0.606 ± 0.096
3,SGLRPGAGDCSA,0.611 ± 0.07
4,RFFSGPCCGRSP,0.6995 ± 0.002
5,IIFRLLLSRFFL,0.543 ± 0.022
6,MQNDKCWVCNQR,0.693 ± 0.029
7,SNRLIKKKKKRI,0.715 ± 0.036
8,RSVIEHKMRKKR,0.682 ± 0.026
9,KKKNTKKKNEQS,0.725 ± 0.014
10,HPTDPPFRNTTA,0.6996 ± 0.0043
11,PPPPPPPPPLLP,0.7031 ± 0.006
12,RLPAPPPHPPPP,0.7037 ± 0.0013
13,THVDLGVLVSPE,0.6698 ± 0.0017
14,KPLLSPPTIFPL,0.711 ± 0.032
15,PTPPPQPTPHTP,0.705 ± 0.035
16,FPTSRAGSLIRR,0.678 ± 0.053
17,RSKPIQAIPNPV,0.69 ± 0.03
18,RCSAPWFSPYPP,0.645 ± 0.073
19,LGVGGRWGGPGA,0.691 ± 0.059
20,GHYLLCPQGQSD,0.6675 ± 0.0024
21,SRGWLHVVGGQV,0.6843 ± 0.004
22,LSLYGLLLPTFE,0.714 ± 0.037
23,VLMDVVGLGSSS,0.683 ± 0.019
24,TWRRGSKPHVRS,0.724 ± 0.044
25,QGGGGGGRSGWR,0.6854 ± 0.0061

row,Sequence,protein stability index
1,NFATLFSLCCLY,0.611 ± 0.011
2,AGFCFVALSLPL,0.629 ± 0.048
3,QEKKKVNKKENK,0.737 ± 0.045
4,WGWPHQRDGFLG,0.66 ± 0.007
5,SPLPPARSVPPP,0.646 ± 0.067
6,FLVKFYKYPSTR,0.707 ± 0.12
7,PLPLPSLSAIFL,0.677 ± 0.016
8,WQGARLSSREGH,0.694 ± 0.038
9,GGRVGGSMGVGG,0.659 ± 0.028
10,ISVSGLVVSVGP,0.649 ± 0.011
11,GCLWRGARALGP,0.687 ± 0.075
12,RLPPGATPYPPR,0.711 ± 0.013
13,EKRKNKKYKNKM,0.698 ± 0.049
14,CGVMLFGLGCLW,0.6321 ± 0.00042
15,YPTTSWNPARSV,0.692 ± 0.12
16,VYFFSSIFRCFV,0.544 ± 0.048
17,RELGAWSFITSV,0.705 ± 0.014
18,GGGEGRGGVEYG,0.64 ± 0.037
19,VCILPVTCAGMF,0.6224 ± 0.0012
20,IGGDLGRDSTCL,0.592 ± 0.11
21,AFYVLPPSPLTR,0.665 ± 0.013
22,VRGGGSREERGC,0.639 ± 0.061
23,KDANACSCDATS,0.6774 ± 0.0026
24,SPPLRTFPVTLP,0.644 ± 0.1
25,GQLMRPSFSVSC,0.658 ± 0.009

row,Sequence,protein stability index
1,VNAVLFWPRQLS,0.619 ± 0.013
2,LPGEHSEFNYLL,0.7198 ± 0.0036
3,GYETTQSGFLSS,0.5887 ± 0.0022
4,HSCPLLLAPPPS,0.608 ± 0.058
5,ENQGQKKKKKKR,0.733 ± 0.12
6,PPRLHAPPPSPP,0.716 ± 0.016
7,DTPIGMPLNVTR,0.691 ± 0.061
8,TRVGNMVARRGS,0.687 ± 0.048
9,VQDALPLLVPPF,0.762 ± 0.021
10,ADDDTGYPPTRT,0.669 ± 0.061
11,KYVYFAPVLDVI,0.659 ± 0.033
12,PVWLLASSLADL,0.722 ± 0.039
13,VMKAVNKTKRNV,0.664 ± 0.041
14,RYANGVLHIGSN,0.659 ± 0.042
15,CSSSALADLLPW,0.6537 ± 0.0022
16,MSWSVSDIADDS,0.657 ± 0.0075
17,PEESSSEGSVKR,0.67927 ± 0.00039
18,PDCPCVAVCSDI,0.728 ± 0.032
19,PSTDARRQRLRR,0.721 ± 0.049
20,SERERYKKNEKV,0.643 ± 0.0017
21,LGRTFEEEKYAY,0.767 ± 0.13
22,ELIDGKLLRHRQ,0.733 ± 0.061
23,ARRCRPVFRHAI,0.639 ± 0.007
24,GGPLDASICRSS,0.694 ± 0.061
25,VFLRSPSRAPSL,0.72 ± 0.078

row,Sequence,protein stability index
1,SCSGVHYLGSSL,0.679 ± 0.023
2,RFSDGSHLFGDR,0.524 ± 0.14
3,FLTSFVDLCGFY,0.682 ± 0.0082
4,VLHGFGSLRDRV,0.717 ± 0.017
5,PPLFPPPPPLPR,0.718 ± 0.027
6,SACAPSPPSPSP,0.749 ± 0.015
7,GGRTEYILQLKK,0.686 ± 0.021
8,SSPPSARSPPPP,0.717 ± 0.076
9,PPPLLSHPFLPP,0.69 ± 0.057
10,GVLRPVWVLGGS,0.624 ± 0.017
11,GWGGSIGEEWGG,0.687 ± 0.022
12,LFPRSVPIAINL,0.6259 ± 0.0045
13,GWVWILGRGRGR,0.637 ± 0.044
14,WCRGGGWPVTGL,0.7 ± 0.042
15,SGQVFADGSYAD,0.699 ± 0.015
16,PHSLPPPTPPHS,0.629 ± 0.047
17,LTLTQAPVRTDF,0.677 ± 0.018
18,PPPAPLRSLSTP,0.701 ± 0.024
19,LIPTPPPHPPSP,0.679 ± 0.023
20,GEARVGGRWWSK,0.7722 ± 0.0071
21,FCGGSWTDGFGW,0.737 ± 0.028
22,RVCCGVKDSEES,0.619 ± 0.0062
23,AGADCSHCVVDV,0.696 ± 0.0096
